Molecular target: His-Rac2 (hexahistidine-tagged Rac2^G12V, aa 2-177) (human) (UniProt P15153)
Test: SPR

Kd: 6 µM | kon: 385 M⁻¹ s⁻¹
Substance: PLCβ2 (PH-C2) (domain or fragment)

Reference: PMC2573054
